Values of other authors in US11739305B2, “Sialyltransferase variants having neosialidase activity” (The Regents of the University of California, priority 2017, dated 2023).
Read-outs that look alike come from different tables or passages of the source.

B1: Pd2,6ST: Photobacterium damselae α2-6-sialyltransferase, wild-type enzyme (GenBank BAA25316.1, SEQ ID NO: 1) (protein, listed as Photobacterium damselae)
chain: MKKILTVLSIFILSACNSDNTSLKETVSSNSADVVETETYQLTPIDAPSSFLSHSWEQTCGTPILNESDKQAISFDFVAPELKQDEKYCFTFKGITGDHRYITNTTLTVVAPTLEVYIDHASLPSLQQLIHIIQAKDEYPSNQRFVSWKRVTVDADNANKLNIHTYPLKGNNTSPEMVAAIDEYAQSKNRLNIEFYTNTAHVFNNLPPIIQPLYNNEKVKISHISLYDDGSSEYVSLYQWKDTPNKIETLEGEVSLLANYLAGTSPDAPKGMGNRYNWHKLYDTDYYFLREDYLDVEANLHDLRDYLGSSAKQMPWDEFAKLSDSQQTLFLDIVGFDKEQLQQQYSQSPLPNFIFTGTTTWAGGETKEYYAQQQVNVINNAINETSPYYLGKDYDLFFKGHPAGGVINDIILGSFPDMINIPAKISFEVLMMTDMLPDTVAGIASSLYFTIPADKVNFIVFTSSDTITDREEALKSPLVQVMLTLGIVKEKDVLFWADHKVNSMEVAIDEACTRIIAKRQPTASDLRLVIAIIKTITDLERIGDVAESIAKVALESFSNKQYNLLVSLESLGQHTVRMLHEVLDAFARMDVKAAIEVYQEDDRIDQEYESIVRQLMAHMMEDPSSIPNVMKVMWAARSIERVGDRCQNICEYIIYFVKGKDVRHTKPDDFGTMLD
B2: hNEU2: human NEU2, an α2-3/6/8-sialidase (protein, UniProt Q9Y3R4 1-380, looked up)
Sialidase-2: MASLPVLQKESVFQSGAHAYRIPALLYLPGQQSLLAFAEQRASKKDEHAELIVLRRGDYDAPTHQVQWQAQEVVAQARLDGHRSMNPCPLYDAQTGTLFLFFIAIPGQVTEQQQLQTRANVTRLCQVTSTDHGRTWSSPRDLTDAAIGPAYREWSTFAVGPGHCLQLHDRARSLVVPAYAYRKLHPIQRPIPSAFCFLSHDHGRTWARGHFVAQDTLECQVAEVETGEQRVVTLNARSHLRARVQAQSTNDGLDFQESQLVKKLVEPPPQGCQGSVISFPSPRSGPGSPAQWLLYTHPTHSWQRADLGAYLNPRPPAPEAWSEPVLLAKGSCAYSDLQSMGTGPDGSPLFGCLYEANDYEEIVFLMFTLKQAFPAEYLPQ

Key:
[1] = wild-type, reported previously (Cheng, Chen, et al. Glycobiology 2010)
[2] = CMP-Neu5Ac hydrolysis, wild-type, reported previously (McArthur, Chen, et al. Org. Biomol. Chem. 2017)
[3] = reported previously using Neu5Acα2-6GalβpNP as the substrate (Li, Chen, et al. Mol. BioSyst. 2011)

Molecule	Km [1]	kcat [1]	Km [2]	kcat [2]	Km [3]	kcat [3]
B1	7.6 ± 0.5 mM	0.137 ± 0.005 s⁻¹	45 ± 14 mM	(4.0 ± 0.9) × 10^2 min^−1		
B2					2.1 ± 0.2 mM	0.18 ± 0.01 s⁻¹
